Article PMC6499326 (Genes & Development, 2019)
Each block holds one binder with its values, some of them ahead of it.

Key:
His-NRDE2^111–1164 = molecular target: T1, His-NRDE2^111–1164 (human, UniProt Q9H7Z3 111-1164); assay: pull-down
T1 sequence: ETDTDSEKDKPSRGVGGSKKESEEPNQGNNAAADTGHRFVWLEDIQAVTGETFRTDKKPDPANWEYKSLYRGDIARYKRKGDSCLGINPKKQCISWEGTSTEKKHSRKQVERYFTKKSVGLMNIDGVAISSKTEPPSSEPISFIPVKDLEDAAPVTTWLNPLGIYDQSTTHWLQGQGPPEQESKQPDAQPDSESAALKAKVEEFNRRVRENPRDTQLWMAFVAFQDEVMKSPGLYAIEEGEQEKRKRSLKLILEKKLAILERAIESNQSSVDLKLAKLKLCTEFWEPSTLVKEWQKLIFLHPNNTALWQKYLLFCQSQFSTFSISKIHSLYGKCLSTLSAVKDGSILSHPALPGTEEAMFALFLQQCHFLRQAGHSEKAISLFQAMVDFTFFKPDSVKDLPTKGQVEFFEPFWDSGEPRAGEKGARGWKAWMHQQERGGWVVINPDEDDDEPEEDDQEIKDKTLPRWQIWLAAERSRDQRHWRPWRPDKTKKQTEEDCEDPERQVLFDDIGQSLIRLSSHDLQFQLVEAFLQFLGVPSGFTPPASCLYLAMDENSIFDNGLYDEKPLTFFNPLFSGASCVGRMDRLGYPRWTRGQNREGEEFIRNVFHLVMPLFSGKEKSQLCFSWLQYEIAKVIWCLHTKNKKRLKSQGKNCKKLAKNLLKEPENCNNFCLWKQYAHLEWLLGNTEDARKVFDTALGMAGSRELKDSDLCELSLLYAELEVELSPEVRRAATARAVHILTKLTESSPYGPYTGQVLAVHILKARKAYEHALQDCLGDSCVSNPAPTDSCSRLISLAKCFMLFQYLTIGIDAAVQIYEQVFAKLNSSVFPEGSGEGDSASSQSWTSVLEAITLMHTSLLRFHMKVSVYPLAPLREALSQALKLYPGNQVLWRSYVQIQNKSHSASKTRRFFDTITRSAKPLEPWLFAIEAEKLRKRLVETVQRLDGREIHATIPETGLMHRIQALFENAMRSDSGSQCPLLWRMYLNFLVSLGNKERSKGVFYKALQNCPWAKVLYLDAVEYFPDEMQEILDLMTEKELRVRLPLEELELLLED

His-MTR4^71–1042 = molecular target: T2, His-MTR4^71–1042 (human, UniProt P42285 71-1042); assay: SEC
T2 sequence: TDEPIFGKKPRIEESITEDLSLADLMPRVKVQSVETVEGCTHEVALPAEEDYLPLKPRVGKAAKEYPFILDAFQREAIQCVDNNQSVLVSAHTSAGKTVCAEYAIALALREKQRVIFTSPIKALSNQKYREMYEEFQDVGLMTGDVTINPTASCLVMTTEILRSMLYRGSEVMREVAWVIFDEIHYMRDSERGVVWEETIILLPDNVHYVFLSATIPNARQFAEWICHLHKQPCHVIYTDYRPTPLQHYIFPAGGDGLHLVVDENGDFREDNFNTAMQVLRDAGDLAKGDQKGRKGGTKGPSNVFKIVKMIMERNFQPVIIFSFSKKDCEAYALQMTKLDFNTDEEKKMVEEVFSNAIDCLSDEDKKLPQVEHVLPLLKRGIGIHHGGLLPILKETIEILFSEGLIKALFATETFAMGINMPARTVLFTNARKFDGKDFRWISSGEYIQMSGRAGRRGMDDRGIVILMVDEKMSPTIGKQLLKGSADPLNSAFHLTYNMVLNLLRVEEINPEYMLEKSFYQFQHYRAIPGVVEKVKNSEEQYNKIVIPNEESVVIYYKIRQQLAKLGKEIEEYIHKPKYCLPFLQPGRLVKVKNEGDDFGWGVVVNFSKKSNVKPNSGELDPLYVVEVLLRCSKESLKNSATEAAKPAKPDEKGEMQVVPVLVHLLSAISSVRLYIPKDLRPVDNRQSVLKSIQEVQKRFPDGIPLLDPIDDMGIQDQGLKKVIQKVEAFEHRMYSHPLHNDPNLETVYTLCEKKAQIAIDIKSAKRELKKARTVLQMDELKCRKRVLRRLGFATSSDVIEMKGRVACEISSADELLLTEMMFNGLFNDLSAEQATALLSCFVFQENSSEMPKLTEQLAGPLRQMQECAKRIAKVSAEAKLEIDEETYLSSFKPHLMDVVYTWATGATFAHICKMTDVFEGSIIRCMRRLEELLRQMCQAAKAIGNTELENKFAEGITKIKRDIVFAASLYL

MTR4;NRDE2 MID = molecular target: T3, MTR4;NRDE2 MID (Homo sapiens;Homo sapiens, UniProt P42285;Q9H7Z3 71-1042;163-266, |); assay: EMSA
T3 sequence 1: T2 sequence
T3 sequence 2: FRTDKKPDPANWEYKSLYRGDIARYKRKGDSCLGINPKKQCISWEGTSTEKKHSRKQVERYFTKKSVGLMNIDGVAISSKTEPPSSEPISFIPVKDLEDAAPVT

binding result (His-NRDE2^111–1164): binds
B1: MBP-MTR4^FL (natural protein)
chain: MADAFGDELFSVFEGDSTTAAGTKKDKEKDKGKWKGPPGSADKAGKRFDGKLQSESTNNGKNKRDVDFEGTDEPIFGKKPRIEESITEDLSLADLMPRVKVQSVETVEGCTHEVALPAEEDYLPLKPRVGKAAKEYPFILDAFQREAIQCVDNNQSVLVSAHTSAGKTVCAEYAIALALREKQRVIFTSPIKALSNQKYREMYEEFQDVGLMTGDVTINPTASCLVMTTEILRSMLYRGSEVMREVAWVIFDEIHYMRDSERGVVWEETIILLPDNVHYVFLSATIPNARQFAEWICHLHKQPCHVIYTDYRPTPLQHYIFPAGGDGLHLVVDENGDFREDNFNTAMQVLRDAGDLAKGDQKGRKGGTKGPSNVFKIVKMIMERNFQPVIIFSFSKKDCEAYALQMTKLDFNTDEEKKMVEEVFSNAIDCLSDEDKKLPQVEHVLPLLKRGIGIHHGGLLPILKETIEILFSEGLIKALFATETFAMGINMPARTVLFTNARKFDGKDFRWISSGEYIQMSGRAGRRGMDDRGIVILMVDEKMSPTIGKQLLKGSADPLNSAFHLTYNMVLNLLRVEEINPEYMLEKSFYQFQHYRAIPGVVEKVKNSEEQYNKIVIPNEESVVIYYKIRQQLAKLGKEIEEYIHKPKYCLPFLQPGRLVKVKNEGDDFGWGVVVNFSKKSNVKPNSGELDPLYVVEVLLRCSKESLKNSATEAAKPAKPDEKGEMQVVPVLVHLLSAISSVRLYIPKDLRPVDNRQSVLKSIQEVQKRFPDGIPLLDPIDDMGIQDQGLKKVIQKVEAFEHRMYSHPLHNDPNLETVYTLCEKKAQIAIDIKSAKRELKKARTVLQMDELKCRKRVLRRLGFATSSDVIEMKGRVACEISSADELLLTEMMFNGLFNDLSAEQATALLSCFVFQENSSEMPKLTEQLAGPLRQMQECAKRIAKVSAEAKLEIDEETYLSSFKPHLMDVVYTWATGATFAHICKMTDVFEGSIIRCMRRLEELLRQMCQAAKAIGNTELENKFAEGITKIKRDIVFAASLYL

stoichiometry N (His-MTR4^71–1042): 1
B2: untagged NRDE2^111–1164 (domain or fragment)
chain: T1 sequence

Binder: UGUCUGACUGAAGGACCAGGUGCUGUCUGA (ssRNA) [5' FAM RNA (EMSA)]
binding signal (MTR4;NRDE2 MID): ~8 fold higher affinity than MTR4 alone
